Our source for the Km and kcat values is publication PMC3246455, “Degradation of Pheromone and Plant Volatile Components by a Same Odorant-Degrading Enzyme in the Cotton Leafworm, Spodoptera littoralis” (PLoS ONE, 2011).

What all share (assay type): biochemical, Spodoptera littoralis
Substrate in data set [1]: CC/C=C\CCOC(C)=O
Description: GC of the released alcohol, as in an earlier paper. The settings on record: incubation and analyses as in ref 12; one-site fit.

Substrate in data set [2]: CC/C=C/C=C\CCCCCCCCOC(C)=O
Briefly: GC of the released alcohol, nonlinear fit. The note with it: 5 min incubation, one-site fit, buffer and temperature not restated for kinetics (1 h assay: 20 mM Tris pH 7.4, 28°C).

Substrate in data set [3]: C/C=C/C/C=C\CCCCCCCCOC(C)=O
Briefly: GC of the released alcohol, nonlinear fit. The settings on record: 5 min incubation, one-site fit, buffer and temperature not restated for kinetics (1 h assay: 20 mM Tris pH 7.4, 28°C).

B1: SlCXE7 (Spodoptera littoralis) (protein)
chain: DDEWREVKTAQGPVRGRKHPTEDIYTFYNIPYATAPVGVDRFKAPLPPPVWLQPYDAVEKPVVCPQPVFPFPELQLNKLVKQENCLIANVFVPNTNKKNLSVVVYVHGGAFIMGWGDMFRATQLMNKKDIIVVTFNYRLGVHGFLCLGTEDAPGNAGMKDQVALLRWVQKNIGSFNGNPDDVTIIGFSAGSASVDLLMLSKSAEGLFHRVVPESGGNLAAFAIQRDPVEIAKTYARQLNFTNVDDIYALGEFYKTAPLELLTSDPFFDRTDSTFLFSPCVERNMGQETFLTESPLTILKNGNYKKLPVLYGFAEMEGLLRVDFFPFWKQKMSDKFSDFLPADLTFKYEEEREEVANKVKRFYFGDEPVSEDNILQYVNFFSDVLFMHPMLWATKLHVEAGNNQIYLYELSFVAEEVPEVPHTNIKGVTQCGQSLAVLDGKNLTHKSHSEESLATPEYQKMKKTMREIWYNFIKKGKPVPEGSTRPAWPFAGADRSPHMSLGQKIEPRGVLLEKRTVLWDDINQRYFREPVPPPTPPPKSHAEK
notes: complete ORF amplified from male antennal cDNA, C-terminal V5/6His tag (tag kept), secreted from baculovirus-infected Sf21 cells, Ni-NTA purified from supernatant
On to B1, for which the Michaelis constant (Km) (usually the substrate concentration at which the rate is half of its maximum) in data set [1] was determined as 1600 ± 700 µM; in data set [2], 56.6 ± 18.5 µM; in data set [3], 42.6 ± 13.3 µM. Further, the kcat (as a rule, the maximal rate divided by the concentration of active sites) in data set [1] is 36 s⁻¹; in data set [2], approximately 0.4 s⁻¹; in data set [3] it was approximately 0.4 s⁻¹.
